Data on one sequence can be found in PMC6475865.

For series [1], the system named is Integrase IN_CRF consensus (HIV-1 CRF63_02A1 (consensus of Siberian/Ural isolates)). The experiment in a line: DRaCALA (nitrocellulose). The conditions noted are these: 20 mM HEPES pH 7.2, 10 mM DTT, 7.5 mM MgCl2, 25 C; DRaCALA: 5 nM DNA, 0-500 nM IN, 20 min.
Series [2] has as its system Integrase IN_A (HIV-1 subtype A strain FSU-A). Briefly: DRaCALA (nitrocellulose). The following applies: 20 mM HEPES pH 7.2, 10 mM DTT, 7.5 mM MgCl2, 25 C; DRaCALA: 5 nM DNA, 0-500 nM IN, 20 min.

The term Kd denotes the free concentration of one partner at which half of the binding sites on the other are occupied at equilibrium, for simple one-to-one binding. A lower Kd goes with a tighter complex. Consider “GTGTGGAAAATCTCTAGCAGT (double strand) [U5B/U5A duplex]”, for which the dissociation constant (Kd) in series [1] is 0.023 µM; in series [2], 0.025 µM.
